Source: publication doi:10.1101/2025.08.11.669711, “Site-Specific Nanobody Inhibitors of the Proteasomal Deubiquitinase UCH37” (bioRxiv, 2025)
Positions count from the first letter of the chain named. Names may count otherwise.

How the values were obtained:
[1] = biological target: T1, UCH37 (Homo sapiens, strain); assay: not stated; recombinant purified Nb-v1 with free UCH37 (Supplementary Figure 2b); settings: both partners purified
T1 construct: from His8-MBP-TEV-UCH37 in pVP16 (DNASU); The purification of free UCH37 is not described; in the complexes with RPN13 the His-MBP tag was removed with TEV protease; also called UCHL5; free UCH37; source: E. coli, purified (His-MBP-TEV-UCH37 construct; individually purified for the crystal)
T1 chain: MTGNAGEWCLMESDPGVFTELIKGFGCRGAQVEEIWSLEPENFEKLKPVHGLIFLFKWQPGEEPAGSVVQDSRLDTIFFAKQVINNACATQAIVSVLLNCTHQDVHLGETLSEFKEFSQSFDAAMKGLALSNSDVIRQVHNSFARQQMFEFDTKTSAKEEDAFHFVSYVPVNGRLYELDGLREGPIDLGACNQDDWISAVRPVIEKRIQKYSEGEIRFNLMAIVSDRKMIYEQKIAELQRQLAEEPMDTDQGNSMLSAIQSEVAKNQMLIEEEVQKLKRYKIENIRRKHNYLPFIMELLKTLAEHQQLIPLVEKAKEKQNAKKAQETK

[2] = biological target: T1, UCH37; assay: SPR; BIACORE T200, His-Nb immobilised on NTA chip (about 30 RU); purified UCH37 injected, single cycle kinetics; 50 mM HEPES pH 7.5, 50 mM NaCl, 50 μM EDTA, 0.005% TWEEN 20; 25 °C; 1:1 model; settings: both partners purified
[3] = biological target: T2, Ub-UCH37•RPN13^DEUBAD (Homo sapiens, strain, active site cysteine covalently linked to Ub propargylamine (Ub-PA) | C-terminal propargylamine after residue 75, linked to the active site cysteine of UCH37; biotin on the Avi tag in the …); assay: native MS; 150 mM ammonium acetate pH 6.8; UCH37•RPN13^DEUBAD variants premixed with Nb-ncS1 in equimolar ratio, 1 hour on ice; final 10 uM; nanospray, Synapt G2; settings: both partners purified
T2 construct: from His8-MBP-TEV-UCH37 in pVP16 (DNASU); RPN13 (ADRM1) DEUBAD domain, aa 253-407, cloned from His10-RPN13 in pET19b; ubiquitin residues 1-75 (Ub_(1-75)-propargylamine, made from Avi-Ub_(1-75)-intein); In the pull-down it was offered as a mixture with unconjugated UCH37•RPN13^DEUBAD; also called Ub conjugated UCH37•RPN13^DEUBAD; UCH37•RPN13^DEUBAD -Ub-PA; source: UCH37•RPN13^DEUBAD (E. coli, …)

[4] = biological target: T3, UCH37•RPN13^DEUBAD (Homo sapiens, strain); assay: as above; settings: both partners purified
T3 construct: from His8-MBP-TEV-UCH37 in pVP16 (DNASU); RPN13 (ADRM1) DEUBAD domain, aa 253-407, cloned from His10-RPN13 in pET19b; source: E. coli BL21(DE3) pLysS, co-purified (Ni-NTA, TEV, GST resin, 3C, Superdex 200); not shown: His8, N-terminal, cleaved; MBP, N-terminal, cleaved; GST, N-terminal, cleaved
T3 chain 1: T1 chain
T3 chain 2: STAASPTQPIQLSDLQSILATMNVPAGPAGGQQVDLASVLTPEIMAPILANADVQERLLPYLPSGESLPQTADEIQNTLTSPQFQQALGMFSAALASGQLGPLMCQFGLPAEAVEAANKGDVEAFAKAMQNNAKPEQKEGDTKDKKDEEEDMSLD

[5] = biological target: T3, UCH37•RPN13^DEUBAD; assay: SEC-MALS; nanobodies incubated with UCH37•RPN13^DEUBAD on ice 30 min; TSKgel G3000SWXL; 50 mM sodium phosphate pH 6.5, 150 mM sodium chloride, 10% isopropanol; room temperature; settings: both partners purified
[6] = biological target: T4, UCH37•RPN13 (Homo sapiens, strain); assay: MST; nanobody labelled with fluorescein isothiocyanate at 20 nM (Nb-ncS1) or 50 nM (Nb-cS1); UCH37•RPN13 titrated 4 μM to 0.12 nM or 46 μM to 2.8 nM; 50 mM Tris pH 7.4, 150 mM NaCl, 10 mM MgCl2, 0.05% tween-20; room temperature; 1:1 Kd fit; duplicates; settings: both partners purified
T4 construct: from His8-MBP-TEV-UCH37 in pVP16 (DNASU); RPN13 (ADRM1), His10-RPN13 in pET19b; source: E. coli BL21(DE3) pLysS, co-purified (amylose, TEV, Ni-NTA, Superdex 200); not shown: His8, N-terminal, cleaved; MBP, N-terminal, cleaved
T4 chain 1: T1 chain
T4 chain 2: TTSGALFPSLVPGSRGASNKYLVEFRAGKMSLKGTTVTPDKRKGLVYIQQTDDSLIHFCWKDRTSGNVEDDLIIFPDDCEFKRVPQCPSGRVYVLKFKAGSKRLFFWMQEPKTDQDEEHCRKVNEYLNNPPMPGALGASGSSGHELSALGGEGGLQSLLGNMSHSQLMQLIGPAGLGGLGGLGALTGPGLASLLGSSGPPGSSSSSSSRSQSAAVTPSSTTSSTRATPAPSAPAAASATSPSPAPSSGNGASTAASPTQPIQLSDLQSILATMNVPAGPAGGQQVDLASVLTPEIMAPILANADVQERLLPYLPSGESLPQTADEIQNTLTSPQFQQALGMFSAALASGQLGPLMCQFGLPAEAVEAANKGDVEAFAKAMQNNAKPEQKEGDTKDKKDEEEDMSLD

[7] = biological target: T5, UCH37 (endogenous) (Homo sapiens (HEK293FT, endogenous)); assay: affinity purification with mass spectrometry; WT HEK293FT transfected with HaloTag nanobodies; immunoprecipitation, on-bead trypsin digestion, TMT labelling; compared with Halo-Nb-ctrl; settings: partners not purified
T5 construct: endogenous UCH37 (UCHL5) of HEK293FT cells; also called UCHL5
T5 chain: T1 chain

[8] = biological target: T6, HSP70 chaperone HSPA1B (Homo sapiens, UniProt P0DMV9); assay: affinity purification with mass spectrometry; as a15, but UCH37KO HEK293FT cells; settings: partners not purified
T6 construct: endogenous HSPA1B; source: endogenous, UCH37KO HEK293FT lysate

[9] = biological target: translation elongation factor EEF2 (Homo sapiens, UniProt P13639); assay: as above; settings: partners not purified
[10] = biological target: T5, UCH37 (endogenous); assay: co-IP; WT HEK293FT transfected with HA-Flag-tagged nanobodies; anti-FLAG resin 3 hours 4 °C; lysis in 50 mM HEPES pH 7.5, 50 mM NaCl, 5 mM MgCl2, 2 mM ATP, 1 mM DTT, 10% glycerol; blots of UCH37 and proteasome subunits; settings: partners not purified

T6 sequence (P0DMV9 whole entry): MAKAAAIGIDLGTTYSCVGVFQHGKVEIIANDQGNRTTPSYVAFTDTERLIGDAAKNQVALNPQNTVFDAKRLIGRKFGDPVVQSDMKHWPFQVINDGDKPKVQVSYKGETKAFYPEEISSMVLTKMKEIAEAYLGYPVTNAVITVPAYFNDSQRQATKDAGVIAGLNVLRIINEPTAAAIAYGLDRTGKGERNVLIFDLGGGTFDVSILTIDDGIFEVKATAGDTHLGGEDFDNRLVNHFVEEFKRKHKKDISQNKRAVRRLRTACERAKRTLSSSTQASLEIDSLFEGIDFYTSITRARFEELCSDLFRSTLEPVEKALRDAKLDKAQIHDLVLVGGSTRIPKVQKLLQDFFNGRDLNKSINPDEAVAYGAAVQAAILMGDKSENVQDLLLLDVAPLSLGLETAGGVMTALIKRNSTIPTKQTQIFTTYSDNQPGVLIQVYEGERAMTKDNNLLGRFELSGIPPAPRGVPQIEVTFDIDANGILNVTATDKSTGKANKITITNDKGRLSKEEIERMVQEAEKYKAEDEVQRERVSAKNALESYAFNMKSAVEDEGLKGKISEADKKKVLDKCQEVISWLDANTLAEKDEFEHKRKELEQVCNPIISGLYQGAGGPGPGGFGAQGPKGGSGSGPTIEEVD

B1: Nb-v1 (recombinant) (VHH)
VHH: QVQLQESGGGLVQAGGSLRLSCAASGYIFRSYRMGWYRQAPGKERELVAAIGLGGNTYYADSVKGRFTISRDNAKNTVYLQMNSLKPEDTAVYYCAALHGKPPAFSPFAYWGQGTQVTVSS
notes: most enriched clone of the first yeast display selection, parent of Nb-ncS1 (Nb-ncS1 = Nb-v1 with Q1R, L80Q, H99Y, A109P); His-tagged nanobodies were made in E. coli BL21 (DE3) by the general method; source: recombinant production and purification
For B1, the Kd [1] was 300 pM.

B2: Nb-ncS1 (His-tagged) (VHH)
VHH: B1 VHH with Q1R, L80Q, H99Y, A109P
notes: as the VHH of Nb-v1 with the four stated changes; Cloned into pET28b; Labelled with fluorescein isothiocyanate for MST; also called 6xHis-tagged Nb-ncS1; His-Nb; source: E. coli BL21 (DE3), purified (Ni-NTA, Superdex 75)
B2 was tested, and the Kd [2] was 125 pM, the “stoichiometry N” value [3] was 1 and the “stoichiometry N” value [4] was 1.

B3: Nb-cS1 (His-tagged) (VHH)
VHH: QVQLQESGGGLVQAGGSLRLSCAASGYISRPRTMGWYRQAPGKEREFVAIISNGAITNYADSVKGRFTISRDNAKNTVYLQMNSLKPEDTAVYYCAAGRNIWHAYWGQGTQVTVSS
notes: synthetic nanobody from a yeast display library: clone Nb-v2 matured with L47F, T50I, K99R; Cloned into pET28b; Labelled with fluorescein isothiocyanate for MST; also called 6xHis-tagged Nb-cS1; cNb; source: E. coli BL21 (DE3), purified (Ni-NTA, Superdex 75)
With B3 the “stoichiometry N” value [5] was 1 and the Kd [6] was 200000 pM.

B4: Halo-Nb-cS1 (expressed in cells) (VHH)
VHH: B3 VHH
notes: as the VHH of m15 (Nb-cS1); The authors suspect that this fusion is misfolded in human cells; also called Halo-tagged Nb-cS1; source: HEK293FT (WT or UCH37KO), transiently transfected, in lysate; not shown: HaloTag, C-terminal, kept
B4: binds [7]; binds [8]; binds [9].

B5: HA-Flag-tagged Nb-cS1 (VHH)
VHH: B3 VHH
notes: as the VHH of m15 (Nb-cS1); source: HEK293FT, transiently transfected (1436 pcDNA3 Flag HA vector), in lysate or in fixed cells
B5: binds [10].
